Experiment: label from the status in PepcDB records

Sequence	protein production
AVGKNKGLSKGGKKGGKKKVVDPFSRKDWYDVKAPNMFQTRQIGKTLVNRTQGQRIASDYLKGRVFEVSLADLQKDIDPERSFRKFRLIAEDVQDRNVLCNFHGMDLTTDKYRSMVKKWQTLIEAIVEAKTVDGYLLRVFCIGFTAKDQQSQRKTCYAQQSQVRKIRARMTDIITNEVSGADLKQLVNKLALDSIAKDIEKSCQRIYPLHDVYIRKVKVLKKPRFDVSKLLELHGDGGGKSVEAVVSSEGAVIDRPEGYEPPVQESV	failed
AVSFTGVSGVKNIVAVTACPTGVAHTFMSAEAIEAYAKKQGWNVKVETRGQVGAGNEITVEEVAAADLVFVAADIDVPLDKFKGKPMYRTSTGLALKKTEQEFDKAFKEAKIF	failed
CPLLLRVFTTNNGRHHRMDEFSRGNVPSSELQIYTWMDATLKELTSLVKEVYPEARKKGTHFNFAIVFTDVKRPGYRVKEIGSTMSGRKGTDDSMTLQSQKFQIGDYLDIAIT	failed
DCYKNFVAKKCAGCKNPITGFGKGSSVVAYEGQSWHDYCFHCKKCSVNLANKRFVFHQEQVYCPDCAKKL	not failed
DDAGKRHVYVKEIATGTVKRAIEEKDELIKGYGWINDERLFFVMDKGGNENYHLFASNIDGSNTRDLTPFDGVKASILNMLKEQKDYMIISMNKNNPQIFEPYKLNVVTGELTQLYENKDAANPIQGYEFDKDGELRGYSRLVNGIESELYYKDLATGEFRLLKKTHWDDTFGVIAFNYASKNKDEAYVLTNLDSDKTRIVLYDLKQNKIIREIFANEDYDVSGLHLSRKRNYEIDLMAYEGEKSVVVPVSATYKELHKLMEKEFKGKEFSVVDYDDDETILLIAVQSDKLYGTYYQFDTRTKKFTLLYDLMPQLKEEDMAEMRPIKFKSRDGLTIHGYITLPKAALEGKKVPLIVNPHGGPQGIRDSWGFNPETQLFASRGYATLQVNFRISGGYGKEFLRAGFKQIGRKAMDDVEDGVRYAISQGWVDPDRIAIYGASHGGYATLMGLVKTPDLYACGVDYVGVSNIYTFFDSFPEYWKPFKEMVKEIWYDLDNPEEAAIAKEVSPFFQIDKINKPLFVVQGANDPRVNINESDQIVTALRARGFEVPYMVKYNEGHGFHREENSMELYRAMLGFFAKHLK	failed
DDRQEEKMIKENVYFDGNVKSLGFSQQDGESTVGVMAPGQYTFGTGAPERMTVVKGALTIKRVTDADWVTFTAGEAFEVAGNSSFDLQVEVATAYLCEFL	failed
DEIFCRVYMPDHSYVTIRSRLSASVQDILGSVTEKLQYSEEPAGREDSLILVAVSSSGEKVLLQPTEDCVFTALGINSHLFACTRDSYEALVPLPEEIQVSPGDTEI	not failed
DFLDVQKETPRIRIAIDRVGVKNIKFPLKIHDDFAFLTLNLFVDVPADRKGADMSRAVESIQKVINAGSYGERIGDIGIAICDEALSRFNYSEKAQCEVNIQYYRRSGERYLEYRMYVETAKDRKQIMKNEIGISYVTMTACPCAMETTRALISMDNPDISDAISAIPTITHNQRNVTKLTVDNRSKMITVWDLADVMERVQGKPLDSLLKRVEEGRLVYSAHRNPKFVEDVVREIAYEAARVLGVPDEATIKVSSESDESIHPHNAYAEIDT	failed
DGKVTKVFSSPLMARVQDLSSCAFPAPRISAEKTAAHEVDKDTITYTITVRNSGNLEATGTKFTDNLPGSYVPNSAKLNG	failed
DGQTYQIGFEMRLPVSWNGRFLYQGNGGTDGNIATATGQVGSGGMLSNALKDGFAVISSDAGHSSAQNPLFGLDPQARINYGYGAITKLTPMAKDLIKTAYGKLPDRSYAGGTSNGGRHAMMAATRLGDQYDGILASTPGFHLPRAAAAQLYTAQQLRRVATDENDLSTALTYAERNVLANAILTRCDALDGVADGMVQDVEACRTAFDIHKDVPVCSGSRDGSCLSKDQIDVVANIYRGPVNSSGEALYATQPYDPGLLGSNWASWKFVSSVGTARDPVAVGIIFQVPPDPTIVQNSRKFAFNYNFDTDYPKLSATNSTYSESAMSFMIPPDELNLDKLRLHGGKMIVVQGTADGVFSVDDTQNWYDKLMAKYKSSSLGDAQSFARFYRVPGMNHSRGGLATDQFDALTALVNWVEYGQA	failed
DIEALTLLEIADPIREDAAETLEYLRSEDVTLKIISGDNPVTVSHIAHQAGFADYQSYIDCSKVSDEELEALAEDTAIFGRVSPHQKKLLIQTLNANGHTTAMTGDGVNDILALREADCSIVMAEGDPATRQIANLVLMDSEFKDIPE	failed
DKCKKVYENYPVSKCQLANQCNYDCKLDKHARSGECFYDEKRNLQCICDYCEY	not failed
DNAMEEEIQSIMKIERDLFLAIKNKEFVIHYQPKVDSSTGNIIGSEALIRWLHPSLGMVGPNKFIPIAEKNGLINNIGRWLIQEVFITINKWISEGINVLPVSINLSRVELYKNDLVDFFKLMFNTYNIPKELIELEITETTALRDVKFISERLYEIKSLGMNISLDDFGVGNSNFINLKGIPLDIIKIDRSLILDIVTNTKTKFMVKAIVNLSHDLNVTVICEGVEDMHQVKVLSELGCNFIQGYVFFKP	failed
DNDAIYYPVGDVDIERGGPALEVGEEDVLVARSFNEEDYVLDTIAQYPNDPTLGKLTFMIDLKNQQKDQNVADFNGVGKSKLTMSLGYKDGNYPSESQVPIYTSQDVTAKYAVKLRLKGELLVSGDEWMIDYVYAQLASLFQPYPPANFPEVFMCKGGMKLGTFDSFRRTCTFDITYDRSDLSFSQLYFNLFINLAGQKRENRVRLRIDKESYFELYEQSEEM	not failed
DPAVLLDRAGRVIHLNAAAAQLAPALRVRELAQFALRSPEIVTALREAIATSEPRRVTYLDHGSIERWLELIIAPVQVPTAFGGTDQCMLMTFHDLTPLRRVEEMRADFVANASHELRTPLAALSGFIDTLQGQAR	failed
DPEEIMQVAVEKLGQGLGICRCVIYRCSADDTVATINHEFLGSGVGSIKGYPWPLKDNPLFQEVVVLKEAIAIDNIDRDPRLGEPEPSTGEVKTLVKSCAILSWMLVPIFYRERLLGMMEFHHCGPAPTEWEDDALTLVEGVATQIGVALIQAESYANLQELNEQLAALDRTRSNLVAITGHELRTP	failed
DRCYNCGGLDHHAKECKLPPQPKKCHFCQSISHMVASCPLKAQQGPSAQG	not failed
DREREQHKREEAIQNFKALLSDMVRSSDVSWSDTRRTLRKDHRWESGSLLEREEKEKLFNEHIEALTKKKRE	not failed
DTPEPYSEQDLWDWLRNSTDLQEPRPRAKRRPIVKTGKFKKMFGWGDFHSNIKTVKLNLLITGKIVDHGNGTFSVYFRHNSTGQGNVSVSLVPPTKIVEFDLAQQTVIDAKDSKSFNCRIEYEKVDKATKNTLCNYDPSKTCYQEQTQSHVSWLCSKPFKVICIYISFYSTDYKLVQKVCPDYNYHSDTPYFPSG	failed
DVAYELPAHTTRAQLSIDLVNNGDVEQQEKINSMRFIVFGSTPGGVRLDVNEHILLSTPETATDIDAQLLEVTSSNDILVVVIANEPQSLTSQLDGIANLLTLQEMIYDISSILNSDGQIISATGMPMTGVIRDISIAPDETKTVQMVIERAVARVDVFIEAIDGGAVTGYTAGSTSVTLHNFSHDSYFVMGNVGNGTRDNADSSKNYGKVKEDVSESNLLTHSWTAATTETWAYSSAPGAENRKLLCSFYTAERLFKSDYSDRLSISMANVLKGPSDVTGITGKVIESVTKVDGTGSPTAQPFTEIRRNNVYQVTARVGKIGIQILTISVEDWGERQDIDLDMDL	not failed
DVRVKFEHRGEKRILQFPRPVKLEDLRSKAKIAFGQSMDLHYTNNELVIPLTTQDDLDKAVELLDRSIHMKSLKILLVINGSTQATNLEP	not failed
DWLDLNTTSSVETGQAIVTLDDAQIALNGIYRLASGHSYYGDNYWYYGDCRAADVQARITKGDGKRVSPYYEYNVLASDNLNIVLPWNTVYKVIRQTNNLIQKIESGSIQSSDTKELNRIKSEALVMRGLSLFNLTRLFGMPYTNDKGASLGVPIETSPSDPTHKPSRSTVAQCYEQVVSDMSNALSGLRQETSNGYINYWAAQALLSRVYLNMGEYQKAYDAATDVIKNNGGRYQLYSYEEYPNVWGQDFQSESLFELYITLSEPSGGTGGEGAPMVYANEATVDWNNLILSEDFLNLLNEDPKDVRHCLTKESVIENNTGLPAAAMHEKVYLAKFPGKTGDDPKTNNICIIRLSEVYLNAAEAGLKKGTDIEEAQGYLNDIISRRTTDTSQQVSTETFTLDRILKERRKELVGEGEVFYDYLRNGLAIERKGSWHLETLKASNAQKIEATDLRIALPIPQSEIDANPNIQQNPR	not failed

— a protein production outcome set (Wang et al. 2014)
